Measured values reported in patent CN117088975A.

Molecular target: ALB蛋白(天然提取)
Test: AMC sensor, antibody immobilised at 10 ug/ml, ALB in gradient dilution in PBST

Kd: 1.85 nM
koff: 0.00241 s⁻¹
kon: 1.3e+06 M⁻¹ s⁻¹
B1: Anti-ALB-2G9mut2 (antibody, mouse IgG1, kappa, V domains shown)
VH: QVQLQQSGAELVRPGSSVKISCKASGYAFSNYWMNWVKQRPGQGLEWIGQIYPGDGDTYYNGRFKGKATITADKSPTTAYMQLSSLTSEDSAVYVCARGVLLGSFDYWGQGTTLTVSS
VL: QIVLTQSPAIMSASPGEKVTMTCSASSSVSYMHWYQQKSGTSPKRWIYDTSKLASGVPVRFSGSGSGTSYSLTIRSMEAEDAATYYCQQWGSNPLTFGAGTKLELKR
